Data taken from patent publication US20200207830A1, “TREM2 MUTANTS RESISTANT TO SHEDDASE CLEAVAGE” (NOVARTIS AG, priority 2017, published 2020).
No end group written: not given here.

T1: ADAM10 (Homo sapiens, UniProt O14672)
T1 sequence (O14672 214-748): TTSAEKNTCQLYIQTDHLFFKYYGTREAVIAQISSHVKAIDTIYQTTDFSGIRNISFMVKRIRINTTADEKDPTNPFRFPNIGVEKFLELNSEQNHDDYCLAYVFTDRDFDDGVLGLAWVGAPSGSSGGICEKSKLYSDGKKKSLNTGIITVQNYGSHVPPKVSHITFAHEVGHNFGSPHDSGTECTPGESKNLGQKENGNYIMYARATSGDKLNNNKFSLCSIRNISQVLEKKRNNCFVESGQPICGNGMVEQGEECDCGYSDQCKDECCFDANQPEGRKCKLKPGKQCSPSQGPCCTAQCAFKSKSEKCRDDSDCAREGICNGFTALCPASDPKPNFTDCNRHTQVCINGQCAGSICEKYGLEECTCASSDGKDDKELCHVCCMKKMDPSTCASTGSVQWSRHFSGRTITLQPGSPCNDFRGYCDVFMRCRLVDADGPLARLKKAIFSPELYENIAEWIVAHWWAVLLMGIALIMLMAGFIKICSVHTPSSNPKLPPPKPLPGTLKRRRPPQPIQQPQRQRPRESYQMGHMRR

B1: T2-WFR: human TREM2 mutant, amino acids 169-172 replaced with larger hydrophobic residues; SEQ ID NO: 47 (protein)
chain: MEPLRLLILLFVTELSGAHNTTVFQGVAGQSLQVSCPYDSMKHWGRRKAWCRQLGEKGPCQRVVSTHNLWLLSFLRRWNGSTAITDDTLGGTLTITLRNLQPHDAGLYQCQSLHGSEADTLRKVLVEVLADPLDHRDAGDLWFPGESESFEDAHVEHSISRSLLEGEIWFRWTSILLLLACIFLIKILAASALWAAAWHGQKPGTHPPSELDCGHDPGYQLQTLPGLRDT
B2: T2-YGG: human TREM2 mutant, amino acids 156-164 replaced with larger hydrophobic residues; SEQ ID NO: 46 (protein)
chain: MEPLRLLILLFVTELSGAHNTTVFQGVAGQSLQVSCPYDSMKHWGRRKAWCRQLGEKGPCQRVVSTHNLWLLSFLRRWNGSTAITDDTLGGTLTITLRNLQPHDAGLYQCQSLHGSEADTLRKVLVEVLADPLDHRDAGDLWFPGESESFEDAHVYGGWGGWGPEGEIPFPPTSILLLLACIFLIKILAASALWAAAWHGQKPGTHPPSELDCGHDPGYQLQTLPGLRDT
B3: TRUNCIII-159-174: human TREM2 mutant, deletion of the 16 amino acids 159-174 proximal to the transmembrane domain; SEQ ID NO: 44 (protein)
chain: MEPLRLLILLFVTELSGAHNTTVFQGVAGQSLQVSCPYDSMKHWGRRKAWCRQLGEKGPCQRVVSTHNLWLLSFLRRWNGSTAITDDTLGGTLTITLRNLQPHDAGLYQCQSLHGSEADTLRKVLVEVLADPLDHRDAGDLWFPGESESFEDAHVEHSILLLLACIFLIKILAASALWAAAWHGQKPGTHPPSELDCGHDPGYQLQTLPGLRDT
B4: T2del11-16: human TREM2 6 amino acid deletion mutant of the stalk region; SEQ ID NO: 45 (protein)
chain: MEPLRLLILLFVTELSGAHNTTVFQGVAGQSLQVSCPYDSMKHWGRRKAWCRQLGEKGPCQRVVSTHNLWLLSFLRRWNGSTAITDDTLGGTLTITLRNLQPHDAGLYQCQSLHGSEADTLRKVLVEVLADPLDHRDAGDLWFPGESESFEDAHVEHSEGEIPFPPTSILLLLACIFLIKILAASALWAAAWHGQKPGTHPPSELDCGHDPGYQLQTLPGLRDT

system: HEK293-FT cells; experiment: FACS analysis of cell surface expression of TREM2 WT and mutants in HEK293-FT cells with or without PMA; type: cell-based; settings: co-transfected with hDAP12, 48 h, 30 min 50 ng/ml PMA, ratio of 1 = complete inhibition of shedding, FIG. 4B
Source text: FIGS. 4A-4D show the amino acid stretch in the membrane proximal part of the TREM2 stalk region are important for shedding. […] Amino acid numbering according to iProt Q9NZC2. TM: transmembrane region. Gaps indicate deleted amino acids within the respective mutant. Exchanged amino acids in bold. Underlined amino acids indicates main sheddase cleavage site for generation of the C-terminus of TREM2 ectodomain. […] FIG. 4B is a bar graph showing FACS analysis of TREM2 WT and mutants transiently expressed in HEK293-FT cells. Cells were treated 48 hours after transfection with 50 ng/ml PMA or 0.05% DMSO. Cells were detached, labelled with AF1828 antiserum and analyzed by flow cytometry. Data are plotted as the ratio of untreated over PMA treatment for each mutant as mean±S.E. (n=3). Statistical differences to WT were calculated by Anova with Dunnett's multiple comparison test. *P<0.01. TREM2-double mutant was stably expressed in BWZ-lacZ-mDAP12 cells. Cells were seeded on an activating monoclonal antibody or isotype control and reporter gene activity assessed after 16 h. Data are plotted as the ratio of RGA for activating/control Ab as mean±S.E. (n=3). FIG. 4D is a bar graph showing replacement of the three amino acids at the sheddase cleavage site strongly increases TREM2 cell surface expression. FACS analysis of TREM2 WT and mutants transiently expressed in HEK293-FT cells. Cells were treated 48 h after transfection with 50 ng/ml PMA or 0.05% DMSO. Cells were detached, labelled with AF1828 antiserum and analyzed by flow cytometry. Data are plotted as the ratio of untreated over PMA treatment for each mutant as mean±S.E. (n=3). Statistical differences were calculated by Anova with Dunnett's multiple comparison test. *P<0.01.
Human TREM2 mutants were generated using the QuikChange Site-directed Mutagenesis Kit (Stratagene) and confirmed by sequence analysis. Transfections of complementary DNA (cDNA) constructs were carried out in a 1:1 ratio of hDAP12 and TREM2 in HEK-FT cells using Lipofectamine LTX reagent (Thermofischer) according to the manufacturer's recommendations. 48 h after transfection cells were treated for 30 min with 50 ng/ml PMA or 0.05% DMSO and detached with a cell detachment solution Accutase (Sigma) and stained with goat anti human TREM2 antibody AF1828 (R&D Systems) or isotype control followed by incubation with the secondary Alexa Fluor 488 conjugated antibody (Molecular Probes). Acquisition was performed using a BD FACSCanto II (BD biosciences).
Wild-type (WT) TREM2 or TREM2 mutants were transfected together with hDAP12 into HEK-FT cells. 48 h later cells were treated for 30 min with PMA to activate ADAMs at cell surface (see Sommer, Nature Communications 7, 11523, 2016). TREM2 cell surface expression was assessed by FACS, and results are presented as expression ratio of untreated over PMA treatment (FIG. 4B). The evaluation of each construct in the presence and absence of PMA treatment overcomes the possibility that some constructs might display different binding properties for the antiserum and allows direct comparison of changes in TREM2 cell surface expression after activation of sheddases. A ratio of 1 indicates complete inhibition of shedding. […] Next four shorter deletion mutants were generated encompassing this area, each 6 amino acids long (TRUNC1, T2del3-8, T2del6-11 and T2del11-16).

Molecule | PMA induced TREM2 shedding (TREM2 cell surface expression ratio of untreated over PMA treatment)
T2del3-8: human TREM2 6 amino acid deletion mutant of the stalk region; SEQ ID NO: 15 (LWFPGESESFEDAHVEHSISRSLLEGTSILLLLAC) | no or very little effect on shedding
T2del6-11: human TREM2 6 amino acid deletion mutant of the stalk region; SEQ ID NO: 16 (LWFPGESESFEDAHVEHSISRSLFPPTSILLLLAC) | no or very little effect on shedding
TRUNC1: human TREM2 6 amino acid deletion mutant of the stalk region; SEQ ID NO: 14 (LWFPGESESFEDAHVEHSISRSLLEGEIILLLLAC) | no or very little effect on shedding
B1 | more efficacious
B2 | trend for reduction of TREM2 shedding
B3 | maximally reduces TREM2 shedding
B4 | reduced PMA induced shedding

molecular target: ADAM17 (Homo sapiens, UniProt P78536); experiment: In vitro cleavage of TREM2 stalk region peptides by ADAM17 (HPLC); type: biochemical; settings: neutral buffer, up to 48 hours, HPLC of parent peptide
Source text: FIGS. 5A-5E show ADAM17 cleaves TREM2 stalk region peptides in vitro at H157-S158. […] All peptides were obtained with an N-terminal 7-methoxycoumarin (Mca) fluorescent tag […]. Underlined amino acids indicates main sheddase cleavage site. AA112-171: SEQ ID NO: 24; Peptide 1: SEQ ID NO: 25; Peptide 2: SEQ ID NO: 26; Peptide 3: SEQ ID NO: 27; Peptide la: SEQ ID NO: 28; Peptide 2a: SEQ ID NO: 29; Peptide 4: SEQ ID NO: 30; Peptide 5: SEQ ID NO: 31; Peptide 6: SEQ ID NO: 32. […] FIG. 5C discloses SEQ ID NOS 83, 51 and 84, respectively, in order of appearance.
(§1) In order to identify the cleavage site of ADAM10/ADAM17 within the stalk region of TREM2, in vitro cleavage patterns of stalk region-derived peptides were investigated and confirmed the cleavage site by determination of the C-terminus of shed soluble TREM2 from cell culture supernatants. A series of peptides covering the stalk region were designed for in vitro investigation of ADAM10/ADAM17 cleavage (FIG. 5A). All peptides were obtained with an N-terminal 7-methoxycoumarin (Mca) fluorescent tag. Peptides 1-3, 1a and 2a were incubated with ADAM17 in neutral buffer for up to 48 hours, and reaction was followed by HPLC analysis of aliquots withdrawn at different time points.
(§2) HPLC-MS analysis of the reaction mixture of peptide3/ADAM17 identified one major product, SISRSLLEGEIPFP-NH2(SEQ ID NO: 51), together with 2 minor cleavage products (FIGS. 5B-5C). […] At these time points there was essentially no substrate left. Therefore, it can be concluded that the minor cleavage products originate from secondary ADAM17 cleavage of the main product.

Chain of ADAM17 (P78536 215-824): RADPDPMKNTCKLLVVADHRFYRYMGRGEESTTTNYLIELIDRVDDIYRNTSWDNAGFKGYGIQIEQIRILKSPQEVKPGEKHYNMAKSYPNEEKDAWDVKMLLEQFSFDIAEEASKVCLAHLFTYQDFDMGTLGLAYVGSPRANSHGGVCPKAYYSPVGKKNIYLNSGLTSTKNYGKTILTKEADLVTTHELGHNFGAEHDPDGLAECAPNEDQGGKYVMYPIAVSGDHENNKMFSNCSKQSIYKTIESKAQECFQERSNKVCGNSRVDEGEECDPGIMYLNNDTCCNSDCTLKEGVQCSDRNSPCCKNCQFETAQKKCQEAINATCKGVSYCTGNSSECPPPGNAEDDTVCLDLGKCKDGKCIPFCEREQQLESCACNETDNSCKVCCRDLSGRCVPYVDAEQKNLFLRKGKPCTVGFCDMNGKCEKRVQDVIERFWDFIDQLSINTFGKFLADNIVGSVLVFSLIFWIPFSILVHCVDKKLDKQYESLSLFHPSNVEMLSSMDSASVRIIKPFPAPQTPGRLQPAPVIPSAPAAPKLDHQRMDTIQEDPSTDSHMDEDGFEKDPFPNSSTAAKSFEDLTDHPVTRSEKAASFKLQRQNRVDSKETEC

Molecule | Cleavage by ADAM17
1a: TREM2 stalk region derived synthetic peptide with 7-methoxycoumarin (Mca) tag; SEQ ID NO: 28 (VLVEVLADPLDHRD; also: 7-methoxycoumarin (Mca) tag, position not given here) [Peptide 1a] | only very little or no reduction of the parent peptide
Peptide 1: TREM2 stalk region derived synthetic peptide with 7-methoxycoumarin (Mca) tag; SEQ ID NO: 25 (SLHGSEADTLRKVLVEVLAD; also: 7-methoxycoumarin (Mca) tag, position not given here) | only very little or no reduction of the parent peptide
Peptide 2: TREM2 stalk region derived synthetic peptide with 7-methoxycoumarin (Mca) tag; SEQ ID NO: 26 (PLDHRDAGDLWFPGESESFE; also: 7-methoxycoumarin (Mca) tag, position not given here) | only very little or no reduction of the parent peptide
Peptide 2a: TREM2 stalk region derived synthetic peptide with 7-methoxycoumarin (Mca) tag; SEQ ID NO: 29 (ESESFEDAHVEH; also: 7-methoxycoumarin (Mca) tag, position not given here) | only very little or no reduction of the parent peptide
Peptide 3: TREM2 stalk region derived synthetic peptide with 7-methoxycoumarin (Mca) tag; SEQ ID NO: 27 (DAHVEHSISRSLLEGEIPFP; also: 7-methoxycoumarin (Mca) tag, position not given here) | Significant cleavage

molecular target: T1, ADAM10; experiment: In vitro cleavage of TREM2 stalk region peptides by ADAM10; type: biochemical; settings: data not shown
Source text: as §1, §2
Recent literature gave insight into ADAM10 and ADAM17 preferences for the cleavage of peptides and proteins (Caescu et al., Biochem J 424, 79-88, 2009; Tucher et al., J Proteome Res 13, 2205-2214, 2014). […] After searching for the least preferred amino acids in substrates of ADAM10 and 17, isoleucine was identified as never occurring in P1 of ADAM substrates, and a very low preference for aspartate or proline in P1′ and in P2′. […] In these peptides the H-SI cleavage site was replaced with IPP, IPD, and IDP, respectively.

Cleavage by ADAM10 | Molecule
very similar cleavage pattern | Peptide 3: TREM2 stalk region derived synthetic peptide with 7-methoxycoumarin (Mca) tag; SEQ ID NO: 27 (DAHVEHSISRSLLEGEIPFP; also: 7-methoxycoumarin (Mca) tag, position not given here)
